Values belong to the molecule of their own block, whether it stands above or below them.
Columns and labels:
[1] = target: plasma-derived coagulation Factor IXa (human) (UniProt P00740); test: cell-based or functional assay
[2] = target: plasma-derived coagulation Factor IXa (human) (UniProt P00740); test: FXa generation assay; FIXa stimulation by the one-armed antibody at eight concentrations, fitted with the quadratic binding equation

UniProt P00740, sequence (P00740 47-191, chain 1 of 2): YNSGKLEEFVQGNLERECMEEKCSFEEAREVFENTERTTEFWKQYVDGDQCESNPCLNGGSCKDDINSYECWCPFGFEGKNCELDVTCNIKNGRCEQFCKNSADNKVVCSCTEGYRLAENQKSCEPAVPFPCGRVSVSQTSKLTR
UniProt P00740, sequence (P00740 227-461, chain 2 of 2): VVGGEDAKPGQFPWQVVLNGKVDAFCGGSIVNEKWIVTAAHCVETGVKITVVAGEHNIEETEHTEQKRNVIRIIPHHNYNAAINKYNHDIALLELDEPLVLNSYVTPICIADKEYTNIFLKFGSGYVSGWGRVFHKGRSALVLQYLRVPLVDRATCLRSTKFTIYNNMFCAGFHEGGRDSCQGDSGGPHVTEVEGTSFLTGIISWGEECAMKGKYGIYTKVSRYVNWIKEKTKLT

Stimulation Index (FXa generation assay; estimated at full FIXa saturation) [1]: 1370 fold
Kd [2]: 1100 nM
Molecule: monovalent one-armed (OA) version of the anti-FIXa antibody of emicizumab (ACE910)

Stimulation Index (FXa generation assay; 1599 nM OA antibody) [1]: 9840 fold
B1: monovalent one-armed (OA) antibody of anti-FIX(a) mAb1 (antibody, V domains shown, part only)
VH: EVQLVESGGGLVQPGRSLRLSCAASGFTFHDYAMHWVRQVPGKGLEWVSGISWRGDIGGYVKSVKGRFTISRDNAKNSLYLQMNSLRAEDTALYYCVKSYGSGSFYNAFDSWGQGTLVTVSS
VL: DIQMTQSPSTLSASVGDRVTITCRASQSISSWLAWYQQKPGKAPKFLIYKGSKADRGTPSRFSGSGSGTEFTLTISSLQPDDFATYYCLEYESYIRTFGQGTKVEIK
modifications: constant regions and truncated heavy chain not given

Stimulation Index (FXa generation assay; 5640 nM OA antibody) [1]: 14200 fold
B2: monovalent one-armed (OA) antibody of anti-FIX(a) mAb2 (antibody, V domains shown, part only)
VH: EVQLVESGGGLVQPGRSLRLSCAASGFTFHDYAMHWVRQVPGKGLEWVSGISWRGDIGGYVKSVKGRFTISRDNAKNSLYLQMNSLRAEDTALYYCVKSYGSGSFYNAFDSWGQGTLVTVSS
VL: DIQMTQSPSTLSASVGDRVTITCRASQSISSWLAWYQQKPGKAPKFLIYKGSKQDRGTPSRFSGSGSGTEFTLTISSLQPDDFATYYCLEYSSYIRTFGQGTKVEIK
modifications: constant regions and truncated heavy chain not given

Stimulation Index (FXa generation assay; 1276 nM OA antibody) [1]: 10100 fold
B3: monovalent one-armed (OA) antibody of anti-FIX(a) mAb8 (antibody, V domains shown, part only)
VH: EVQLVESGGGLVQPGRSLRLSCAASGFTFHDYAMHWVRQVPGKGLEWVSGISWRGDIGGYVKSVKGRFTISRDNAKNSLYLQMNSLRAEDTALYYCVKSYGSGSFYNAFDSWGQGTLVTVSS
VL: DIQMTQSPSTLSASVGDRVTITCRASQSISSWLAWYQQKPGKAPKFLIYKAEKLDRGTPSRFSGSGSGTEFTLTISSLQPDDFATYYCLEYESYIRTFGQGTKVEIK
modifications: constant regions and truncated heavy chain not given

Stimulation Index (FXa generation assay; 1217 nM OA antibody) [1]: 10500 fold
B4: monovalent one-armed (OA) antibody of anti-FIX(a) mAb4 (antibody, V domains shown, part only)
VH: EVQLVESGGGLVQPGRSLRLSCAASGFTFHDYAMHWVRQVPGKGLEWVSGISWRGDIGGYVKSVKGRFTISRDNAKNSLYLQMNSLRAEDTALYYCVKSYGSGSFYNAFDSWGQGTLVTVSS
VL: DIQMTQSPSTLSASVGDRVTITCRASQSISSWLAWYQQKPGKAPKFLIYKSEKLDRGTPSRFSGSGSGTEFTLTISSLQPDDFATYYCLEYESYIRTFGQGTKVEIK
modifications: constant regions and truncated heavy chain not given

Stimulation Index (FXa generation assay; 3547 nM OA antibody) [1]: 13500 fold
B5: monovalent one-armed (OA) antibody of anti-FIX(a) mAb6 (antibody, V domains shown, part only)
VH: EVQLVESGGGLVQPGRSLRLSCAASGFTFHDYAMHWVRQVPGKGLEWVSGISWRGDIGGYVKSVKGRFTISRDNAKNSLYLQMNSLRAEDTALYYCVKSYGSGSFYNAFDSWGQGTLVTVSS
VL: DIQMTQSPSTLSASVGDEVTITCRASQSISSWLAWYQQKPGKAPKFLIYKGSKLDRGTPSRFSGSGSGTEFTLTISSLQPDDFATYYCLEYSSYIRTFGQGTKVEIK
modifications: constant regions and truncated heavy chain not given

Stimulation Index (FXa generation assay; 749 nM OA antibody) [1]: 8650 fold
B6: monovalent one-armed (OA) antibody of anti-FIX(a) mAb3 (antibody, V domains shown, part only)
VH: EVQLVESGGGLVQPGRSLRLSCAASGFTFHDYAMHWVRQVPGKGLEWVSGISWRGDIGGYVKSVKGRFTISRDNAKNSLYLQMNSLRAEDTALYYCVKSYGSGSFYNAFDSWGQGTLVTVSS
VL: DIQMTQSPSTLSASVGDRVTITCRASQSISSWLAWYQQKPGKAPKFLIYKGSKTDRGTPSRFSGSGSGTEFTLTISSLQPDDFATYYCLEYESYIRTFGQGTKVEIK
modifications: constant regions and truncated heavy chain not given

Stimulation Index (FXa generation assay; 851 nM OA antibody) [1]: 8730 fold
B7: monovalent one-armed (OA) antibody of anti-FIX(a) mAb7 (antibody, V domains shown, part only)
VH: EVQLVESGGGLVQPGRSLRLSCAASGFTFHDYAMHWVRQVPGKGLEWVSGISWRGDIGGYVKSVKGRFTISRDNAKNSLYLQMNSLRAEDTALYYCVKSYGSGSFYNAFDSWGQGTLVTVSS
VL: DIQMTQSPSTLSASVGDEVTITCRASQSISSWLAWYQQKPGKAPKFLIYKAEKLDRGTPSRFSGSGSGTEFTLTISSLQPDDFATYYCLEYESYIRTFGQGTKVEIK
modifications: constant regions and truncated heavy chain not given

Stimulation Index (FXa generation assay; 1463 nM OA antibody) [1]: 11200 fold
B8: monovalent one-armed (OA) antibody of anti-FIX(a) mAb5 (antibody, V domains shown, part only)
VH: EVQLVESGGGLVQPGRSLRLSCAASGFTFHDYAMHWVRQVPGKGLEWVSGISWRGDIGGYVKSVKGRFTISRDNAKNSLYLQMNSLRAEDTALYYCVKSYGSGSFYNAFDSWGQGTLVTVSS
VL: DIQMTQSPSTLSASVGDEVTITCRASQSISSWLAWYQQKPGKAPKFLIYKGEKLDRGTPSRFSGSGSGTEFTLTISSLQPDDFATYYCLEYSSYIRTFGQGTKVEIK
modifications: constant regions and truncated heavy chain not given

Source: US20250376538A1
